The series in a line: soluble on expression in E. coli; label from the status in PepcDB or PDB records.
Consider “MSLQWKPAGDKIRTFWAEKVDVNNVLPEYPRPIMERSDWQNLNGLWNYAVLPLGQSAPTTFDGKILVPFAIESSLSGVGKTLGMEKELWYQRAFNIPSSWRGKRVLLHFGAVDWKTEVWVNNIKVGEHTGGFTPFTFDVTEALEKSTNTLTVKVWDPTDKGFQPRGKQVSNPRGIWYTPVSGIWQTVWLEPVSEHYIAGIKTTPDIDTNKIKVKVETDSNRQSDRLEVKVFDGKHLVAMGTSINGLPVEIPMPADAKLWSPDSPFLYQMEVSLISAGKLVDQIKSYVAMRKYSIKRDEHGIVRLQLNNKDLFQFGPLDQGWWPDGLYTAPTDEALRYDIEKTKDFGFNMIRKHIKVEPARWYTYCDQIGLIVWQDMPSGDKSPEWQNRKYFEGTELTRSAESEETYRKEWKEVIDCLYSYPCIGTWVPFNEAWGQFKTQEIAEWTKQYDPSRLVNPASGGNHYTCGDMLDLHHYPGPEMFLYDAQRATVLGEYGGIGLVLKDHLWEPNRNWGYIQFNTSAEATAEYLKYAGILKDMISRGFSAAVYTQTTDVEVEVNGLMTYDRKVIKLDESKLKKMNTEICNSLKEGHHHHHH”, for which the “soluble on expression in E. coli” value is given as “soluble”. In the case of “MLQPILSISGKSGLFRLVSRGKNTLIVEALDTKRRTPTYPSDRVVSLGDISIYTIEDDVPLPEVMETIYRKNEGKQLDAPALTKDNDSLRAFFGEVLPEYDVDRVYPSDIRKIISWYNLLVDNGFTTFLSDKKPAEEETTEKE” it was “not soluble”; in that of “RPNKGAQQEDERIIQAFDKAIQYMSKRKIGALITIERNTGLDEYIETGIDLDADITGELLINIFIPNTPLHDGAVIIKNEKIAVASAYLPLSESNLIPKEFGTRHRAAVGISEVSDAITIVVSEETGDVSLTLNNELIPGL”, “not soluble”; in that of “MGSDKIHHHHHHMKIHQLRALVAVTTAGSIKAAARTMHVTQPAISKAIQELENEFGVPLLERKPWGVVPTPEGDALLGRAQAVVRELERANEDMAHMKGLRDGRLVIGFTPIVAVTGFAEAYAAFRRHWPNVECELRELTFNLLTEQLRNRTLDLAFVAVTGPLSESVDIKAIRTFDTAFVTRENGRFAGATSLDALRDAEWIHADASDSFPTYIRDLHAHAGLPPPRCITRCTSYALFYSLLMTNDAIFSWTRLSLAETVFGQKLTPLPLPMSPPPLQLYRLTPPGLQLTRPASDFLAHVETAFASNQLTGDVQR”, “not soluble”. “MKFPGQRKSKHYFPVKTRDPLLEQLTQQPQPFATYISGIDQTLVDIEAKVEDELLSRYGLPKGNSTLINDEQAHRLYTELKIHGLISDEFAGGTIGNTVHNYSILADDRSVLFGVMSQNIEVGSYAYRYLCNTSSKVDLNYLQPVDGPIGRCFTLISDCGERTFAISKGAMDKLTPEFIDKDVVQGSSALVLTAYLMRASGGDRITDAAMCAIEYAKAADVPVVLTLGTRFLIEEDPLWWQNFIKEHVTILAMNEDEGEALTGSRDPLLASEKALEWCDMVLTTAGPIGLYTAGYTEDSEKRETTHTLLPGAIPEFNRYEFSRPKLKSDCETPIKVYAHISPYMGGPEKIGNTNGAGDGALSALLHDLAANTFHKTNVPGSSKHKRDGLCYSSFSQICKYANRVAYEVLAQHSPRLSRGLPEREDSLEESYWER”: the “soluble on expression in E. coli” value is “soluble”. In the case of “MGSSHHHHHHSSGLVPRGSHMLESSGNRDIAQVVTENNKNYLVLYASQTGTAEDYAKKFSKELVAKFNLNVMCADVENYDFESLNDVPVIVSIFISTYGEGDFPDGAVNFEDFICNAEAGALSNLRYNMFGLGNSTYEFFNGAAKKAEKHLSAAGAIRLGKLGEADDGAGTTDEDYMAWKDSILEVLKDELGVEATGEESSIRQYELVVHTDIDAAKVYMGEMGRLKSYENQKPPFDAKNPFLAAVTTNRKLNQGTERHLMHLELDISDSKIRYESGDHVAVYPANDSALVNQLGKILGADLDVVMSLNNLDEESNKKHPFPCPTSYRTALTYYLDITNPPRTNVLYELAQYASEPSEQELLRKMASSSGEGKELYLSWVVEARRHILAILQDCPSLRPPIDHLCELLPRLQARYYSIASSSKVHPNSVHICAVVVEYETKAGRINKGVATNWLRAKEPAGENGGRALVPMFVRKSQFRLPFKATTPVIMVGPGTGVAPFIGFIQERAWLRQQGKEVGETLLYYGCRRSDEDYLYREELAQFHRDGALTQLNVAFSREQSHKVYVQHLLKQDREHLWKLIEGGAHIYVCGDARNMARDVQNTFYDIVAELGAMEHAQAVDYIKKLMTKGRYSLDVWS” it was “soluble”; in that of “MAFKPVSITGTRRQAGQALGKLARPLMATYLEQSTVWAALRPWRGHAYLEALAHEASQALPEIWDELEGLAEGLRMPLVDILLWNCRGDLLHKTSDGCTSIAWRGDEDARWIAHNEDGDPFLYGRCHMVDVRTDDAPGYISFYYPGSLPGHTFGANRAGLVQTINNVRIRQRHAGVPRMLLARAVLDCATLDDALAVLRDHPRAGGFHHTLGAAGEPRLYSVEASPAACSIGEVARGNGHANHLVHPGSEAIGQIVTDSSRSRQRHIENLMDHWQPPVDGARLVATLLDREGELPILRCGADDPDEENTLATALFEMRDGGLTLQVHDRRDQPALRVTVCPAALEHHHHHH”, “not soluble”. In the case of “ANFQYIITEKKGKNSSVGLIQLNRPKALNALCNGLIEELNQALETFEEDPAVGAIVLTGGEKAFAAGADIKEMQNRTFQDCYSGKFLSHWDHITRIKKPVIAAVNGYALGGGCELAMMCDIIYAGEKAQFGQPEILLGTIPGAGGTQRLTRAVGKSLAMEMVLTGDRISAQDAKQAGLVSKIFPVETLVEEAIQCAEKIANNSKIIVAMAKESVNAAFEMTLTEGNKLEKKLFYSTFATDDRREGMSAFVEKRKANFKDH” it was “soluble”. For the sequence “MSRFTDKVAIITGSSNGIGQATARLLASEGAKVTVTGRNAERLEETKNILLGAGVPEGNVLVVVGDITQESVQENLIKSTLDKFGKIDILVNNAGAGIPDAQGKSGVNQSIDTYHKTFELNVQSVIEMTQKARPHLAKTQGEIVNISSIGAGPAAQVASPYYSIAKAALDQYTRTAAIDLVPEGIRVNSVSPGAVSTGFSAVSRGLTEEKSKAFYDYLGAQRECIPRGFCAVPEDIAKVIAFLADRNASNYIIGQTIVADGGTSLILGAHAHGAKMMQAVFKEL”, the “soluble on expression in E. coli” value is given as “not soluble”. In the case of “MNEDNSPSSNEGKKEKAEGPSRKSFFERLGQLFQGEPKDRQELVDVIRDSEVNDLIDHDTRDMLEGVMEISEMRVRDIMIPRSQMVTVERTDDLDTLIALITDAQHSRYPVISEDKDHVEGILLAKDLLKYLGSGSNPFDIEEVIRPAVVVPESKRVDRLLKEFREERYHMAIVVDEFGGVSGLVTIEDILEEIVGDIEDEFDESEETDIRKLSKHTFAVRALTTIEEFNETFGTNFSDEEVDTVGGMVMTAFGHLPSRGELVEIEGYNFKVTAADNRRVIQLQVTIPDEETLVEATQE” it was “not soluble”; in that of “MAHHHHHHMDKGCSDCFFACHRYENWIDNQKEQFLKQRGEYENVINGTSSSSSSVGGKRQTRRTRSISSDDNGYESKFYKKLKERGYSEVKNFFEKLNKEKECQNFDDKGGEFDFNEHVDKDKEYKGTFYHSKYCEVCPGCGVKRDGNDWKEKSGGRCTRKKRYKILDDNNFNGIDVLSFGDKRNEIKQKIDTFCGGSNEEKEKLKEQWKCYEAQYVKEDKKEDEEDEDEVEEEDDLKDAGGLCTLQNKKK”, “not soluble”; in that of “MGSDKIHHHHHHMFSLFETFIVVYETKSFTLAGKYLFISQPTVTVRIKKLEEELKSTLFLRGKHQEIIPTEAAILFYPKAIAYLKKWEEDQAEVQKKSLAKHPFKIGVSHSAALSIMPGIFKVFEGELEHLDVEINMYDSEKVFELVANHDLHFGIIERLLISDQTETFPLFLDELVLAGNTDSETFFTRESGSGIGYYIKRYLKSAPSAQRNIVRMNSNEMIISHIKAGLGSSLISKSFLTDDIPYQELGSNYHREFLGVSFDEEKDPMIQKLISKIKKETEIH”, “not soluble”.

On to “MAMKERYLIIDGYNMIGQSPTLSAIAKENLEEARMQLIDAIANYNAVISDEIICVFDAYDQSGVEREYMYHGVKTIFTKEKETADSFIERYVYELYDKHTKHITVVTSDMSEQHAIFGSGAYRISSREMWRDLKENEIDVSKSLDDISENKPRTRIPLSSEILAEFEKIRRGHHKKLEHHHHHH”, for which the “soluble on expression in E. coli” value was “not soluble”. To “SNANVGVFVLMHGDSTASSMLKTAQELLGTSIGTAMNMPLTMEVQTMYEQLRNQVITQKESLNNGILLLTDMGSLNSFGNMLFEETGIRTKAITMTSTMIVLEAIRMASVGRSLEDIYQNIQLSFESVVREQFRSSLQK” belongs “soluble”.

The values are drawn from the DeepSol protein solubility set.
